Read-outs that look alike come from different tables or passages of the source. No end group written: not given here.

These results are taken from US20070265189A1.

For assay [1], the target named is human insulin receptor (HIR) (human) (UniProt P06213). Kind of assay: HIR Kd; method not restated (Example 3: 125I-insulin displacement, solubilised HIR).
Assay [2] deals with soluble human insulin receptor-immunoglobulin heavy chain chimera (sIR-Fc; Bass et al., 1996) (human), P06213. Kind of assay: phage ELISA.
In assay [3] the target is Soluble IGF-1R (sIGF-1R), R&D Systems Cat. # 391-GR/CF, P08069. Kind of assay: phage ELISA.
The target in assay [4] is human insulin receptor (HIR) (human) (UniProt P06213). Put plainly: HIR Kd; method not restated (Example 3: 125I-insulin displacement, solubilised HIR). This is another data set of the same source.
The target in assay [5] is T1, Insulin receptor prepared according to Bass et al., 1996 (human), P06213. Kind of assay: phage ELISA: IR ratio over background divided by IGF-1R ratio over background.
Assay [6] deals with Soluble IGF-1R (R&D Systems, Cat. # 391-GR/CF), P08069. Kind of assay: phage ELISA: IGF-1R ratio over background divided by IR ratio over background.
Assay [7] has the same target.
The target of assay [8] is T1, Insulin receptor prepared according to ….
Assay [9] deals with soluble human insulin receptor-immunoglobulin heavy chain chimera (sIR-Fc; Bass et al., 1996) (human) (UniProt P06213). Kind of assay: phage ELISA.
Assay [10] addresses human insulin receptor (HIR) purified from transfected cells after solubilization with Triton X-100 (human) (UniProt P06213). Put plainly: competition with 125I-insulin for solubilised HIR, PEG precipitation; Kd calculated.

B1: RB537 (peptide)
peptide: MADYKDDDDKGSLDESFYDWFERQLGKKGGSGGSWLDQEWAWVQCEVYGRGCPSAAAGAPVPYPDPLEPRPG
In [1], B1 returned a Kd of 0.059 nM.

B2: RB538 (peptide)
peptide: MADYKDDDDKGSLDESFYDWFERQLGKKGGSGGSGGSGGSWLDQEWAWVQCEVYGRGCPSAAAGAPVPYPDPLEPRPG
B2 had a Kd in assay [1] of 0.017 nM.

B3: B6Hα-2-C4-IR (peptide)
peptide: RCGRWXAEMGAGDDPFYHKLSELVCG
modifications: not fully specified; X: residue not identified in the source; cysteine pairing not given here
With B3, in [2], the IR/IGF-1R comparison stood at 0.1 and the Ratio over Background amounted to 0.9. For the same molecule, in [3], the IGF-1R/IR comparison was 11 and the Ratio over Background was 9.9.

B4: Fusion 437 (MBP fusion of H2C) (protein, not shown: large carriers; small tags and cut ends)
chain: NNNNLGIEGRISEFIEGRAQPAMAFHENFYDWFVRQVSAAAGAPVPYPDPLEPRAA
In the case of B4, the Kd in [1] amounted to 83 nM; in assay [4] it was 8300 nM.

B5: B6L-4-A7-IR (peptide, not shown: large carriers)
peptide: DYKDAGTPAQVGXNRLWSVWPGEHWNTVDPFYNKLSELLRESGAAAAGAP
modifications: not fully specified; X: residue not identified in the source; also: phage-displayed fusion
As for B5, the Comparison IR/IGF-1R in [5] turned out to be 0.6. In addition, the Comparison IGF-1R/IR in assay [6] came out at 1.8. For the same molecule, the Ratio over Background, IGF-1R (ratio over background) in [7] was found to be 3.4. Moreover, the Ratio over Background, IR (ratio over background) in assay [8] worked out at 1.9.

B6: 20E2B-3-C11-IGFR (peptide)
peptide: CMMXDGFYAGLGCLLTAGEGR
modifications: not fully specified; printed as CMM.DGFYAGLGCLLTAGEGR; X: residue not identified in the source; cysteine pairing not given here
For B6, in assay [2], the IR/IGF-1R comparison is 0.1 and the Ratio over Background worked out at 2.1. Moreover, in assay [3], the IGF-1R/IR comparison came out at 7.5 and the Ratio over Background is 15.4.

B7: Fusion 436 (MBP fusion of H2C-9aa-H2C) (protein, not shown: large carriers; small tags and cut ends)
chain: NNNNLGIEGRISEFIEGRAQPAMAFHENFYDWFVRQVSGGSGGSGGSFHENFYDWFVRQVSAAAGAPVPYPDPLEPRAA
For the molecule B7, the Kd in assay [1] amounted to 410 nM.

As to RGAVAGFHDQFYDWFDRQVSRVHKFG [H2CA-4-H9-IGFR], in assay [9], the IR/IGF-1R comparison turned out to be 0.3 and the Ratio over Background was 1.9.

B8: Fusion 435 (MBP fusion of H2C-3aa-H2C-3aa-H2C) (protein, not shown: large carriers; small tags and cut ends)
chain: NNNNLGIEGRISEFIEGRAQPAMAFHENFYDWFVRQVSGGSFHENFYDWFVRQVSGGSFHENFYDWFVRQVSAAAGAPVPYPDPLEPRAA
As for B8, the Kd in [1] came to 20 nM; in [4] it was 2000 nM.

On to GSLDESFYDWFERQLG [S386], for which the Kd in assay [10] was 320 nM.

B9: RB521 (peptide)
peptide: MADYKDDDDKGSLDESFYDWFERQLGKKGGSGGSGSLDESFYDWFERQLGKKAAAGAPVPYPDPLEPRPG
As to B9, the dissociation constant (Kd) in assay [1] was determined as 44 nM.

B10: 20E2B-2-B11-IGFR (peptide)
peptide: VVTPVNFYRALEALVRGXRLG
modifications: not fully specified; printed as VVTPVNFYRALEALVRG.RLG; X: residue not identified in the source
B10: in assay [2], the IR/IGF-1R comparison turned out to be 0.1 and the Ratio over Background is 1.1. Further, in assay [3], the IGF-1R/IR comparison was 9.4 and the Ratio over Background came to 10.6.

Turning to YRGMLVLGRISGGAGKAASERPARIGQKVSAVNFYDWFV [A6L-0-H3-IR], in [9], the IR/IGF-1R comparison was determined as 0.1 and the Ratio over Background was 2.

B11: Fusion 464 (MBP fusion of LF-H2C) (protein, not shown: large carriers; small tags and cut ends)
chain: NNNNLGIEGRISEFIEGRDYKDDDDKFHENFYDWFVRQVSAAGAPVPYPDPLEPRAA
For the molecule B11, the Kd in [4] turned out to be 39 nM.

B12: RB517 (peptide)
peptide: DYKDDDDKHLCVLEELFWGASLFGYCSGGGSGGSHLCVLEELFWGASLFGYCSGAAAGAPVPYPDPLEPRAA
In [1], B12 had a dissociation constant (Kd) of 60 nM.

B13: Fusion 463 (MBP fusion of H2C-3aa-H2C) (protein, not shown: large carriers; small tags and cut ends)
chain: NNNNLGIEGRISEFIEGRAQPAMAFHENFYDWFVRQVSGGSFHENFYDWFVRQVSAAAGAPVPYPDPLEPRAA
The molecule B13 displayed a Kd in assay [1] of 960 nM.

DYKDVDTPAQVGWNRLWSVGPGEHWYTDDPFYHXLSELLRESGAAAAGAP (peptide, not shown: large carriers, X: residue not identified in the source; also: phage-displayed fusion) [B6L-3-G6-IR]: the Comparison IR/IGF-1R in assay [5] was 0.7. In addition, in assay [6], the Comparison IGF-1R/IR was 1.4. In addition, the Ratio over Background, IGF-1R (ratio over background) in assay [7] is 2.5. In assay [8], the Ratio over Background, IR (ratio over background) was found to be 1.8.
